# Data from patent US20200181261A1 (Bayer, published 2020).
# Substitutions are numbered along the chain they refer to.
# T1: human CEACAM6, extracellular (mature form), R&D Systems 3934-CM (human, UniProt P40199 35-320)
# T1 construct: used biotinylated in some assays; also called TPP-1436; Recombinant human CEACAM6
# T1 sequence: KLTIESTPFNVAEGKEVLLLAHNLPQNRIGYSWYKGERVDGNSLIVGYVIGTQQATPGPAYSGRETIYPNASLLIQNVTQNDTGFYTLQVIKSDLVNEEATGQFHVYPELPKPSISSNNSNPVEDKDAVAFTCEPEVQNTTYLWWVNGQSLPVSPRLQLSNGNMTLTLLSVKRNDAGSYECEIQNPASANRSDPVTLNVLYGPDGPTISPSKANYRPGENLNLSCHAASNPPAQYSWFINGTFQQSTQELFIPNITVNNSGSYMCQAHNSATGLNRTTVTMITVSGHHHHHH
# T2: Macaca fascicularis CEACAM6, extracellular (mature form), obtained by Factor Xa cleavage of TPP-2443 (Macaca fascicularis)
# T2 construct: used biotinylated in some assays; also called APP-319; Cynomolgus CEACAM6
# T2 chain: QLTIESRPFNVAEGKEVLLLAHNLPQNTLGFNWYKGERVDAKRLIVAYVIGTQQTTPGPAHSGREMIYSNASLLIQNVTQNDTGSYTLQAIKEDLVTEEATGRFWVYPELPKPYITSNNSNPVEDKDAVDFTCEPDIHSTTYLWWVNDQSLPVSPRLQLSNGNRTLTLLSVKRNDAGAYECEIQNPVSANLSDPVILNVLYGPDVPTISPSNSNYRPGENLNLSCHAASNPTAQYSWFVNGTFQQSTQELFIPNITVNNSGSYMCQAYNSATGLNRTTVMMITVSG
# T3: human CEACAM5, extracellular (mature form), R&D Systems 4128-CM (human, UniProt P06731 35-685)
# T3 construct: used biotinylated in some assays; also called TPP-1438; hC5
# T3 sequence: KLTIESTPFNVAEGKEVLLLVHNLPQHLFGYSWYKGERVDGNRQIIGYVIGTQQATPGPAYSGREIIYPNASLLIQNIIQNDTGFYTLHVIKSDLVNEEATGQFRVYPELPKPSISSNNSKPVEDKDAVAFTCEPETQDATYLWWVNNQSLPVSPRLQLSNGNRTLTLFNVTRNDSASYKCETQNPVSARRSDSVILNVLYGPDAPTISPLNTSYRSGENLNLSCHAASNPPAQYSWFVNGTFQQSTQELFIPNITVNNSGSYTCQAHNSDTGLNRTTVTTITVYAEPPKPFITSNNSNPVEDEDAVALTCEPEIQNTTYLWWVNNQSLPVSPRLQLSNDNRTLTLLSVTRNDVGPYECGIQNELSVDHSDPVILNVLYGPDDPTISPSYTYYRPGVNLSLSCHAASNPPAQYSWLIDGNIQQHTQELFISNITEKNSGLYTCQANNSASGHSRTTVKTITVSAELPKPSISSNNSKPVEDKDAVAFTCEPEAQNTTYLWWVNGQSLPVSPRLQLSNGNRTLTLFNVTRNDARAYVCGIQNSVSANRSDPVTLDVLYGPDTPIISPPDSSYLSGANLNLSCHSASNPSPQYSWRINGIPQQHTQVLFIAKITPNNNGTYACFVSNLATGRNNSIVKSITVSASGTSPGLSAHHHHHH
# B1: TPP-3310 (antibody, human IgG2, kappa)
# heavy: QVTLRESGPALVKPTQTLTLTCTFSGFSLSTYGIGVGWIRQPPGKALEWLAHIWWNDNKYYSTSLKTRLTISKDTSKNQVVLTMTNMDPVDTATYYCARISLPYFDYWGQGTTLTVSSASTKGPSVFPLAPCSRSTSESTAALGCLVKDYFPEPVTVSWNSGALTSGVHTFPAVLQSSGLYSLSSVVTVPSSNFGTQTYTCNVDHKPSNTKVDKTVERKCCVECPPCPAPPVAGPSVFLFPPKPKDTLMISRTPEVTCVVVDVSHEDPEVQFNWYVDGVEVHNAKTKPREEQFNSTFRVVSVLTVVHQDWLNGKEYKCKVSNKGLPAPIEKTISKTKGQPREPQVYTLPPSREEMTKNQVSLTCLVKGFYPSDIAVEWESNGQPENNYKTTPPMLDSDGSFFLYSKLTVDKSRWQQGNVFSCSVMHEALHNHYTQKSLSLSPG
# light: DIQLTQSPSFLSASVGDRVTITCKASQNVGTAVAWYQQKPGKAPKLLIYSASNRYTGVPSRFSGSGSGTEFTLTISSLQPEDFATYYCQQYSSYPLTFGGGTKVEIKRTVAAPSVFIFPPSDEQLKSGTASVVCLLNNFYPREAKVQWKVDNALQSGNSQESVTEQDSKDSTYSLSSTLTLSKADYEKHKVYACEVTHQGLSSPVTKSFNRGEC
# notes: humanized from TPP-2971, human IgG2; also called TPP-2971HU1-hIgG2Kappa
# B2: TPP-3714 (antibody, human IgG2, kappa)
# heavy: B1 heavy with T113L, L114V
# light: B1 light
# notes: humanized from TPP-2971, human IgG2; also called TPP-2971HU2-hIgG2Kappa
# B3: TPP-3705 (antibody, human IgG2, kappa, V domains shown)
# VH: EVQLVESGGGLVQPGGSLRLSCAASGFTFSLYQMHWVRQAPGKGLEWVSWISFSGGNTGYADSVKGRFTISRDNSKNTLYLQMNSLRAEDTAVYYCARATGYSSPWYLDPWGQGTLVTVSS
# VL: DIQMTQSPSSLSASVGDRVTITCQASHEIDNYLNWYQQKPGKAPKLLIYDAYWLKTGVPSRFSGSGSGTDFTLTISSLQPEDIATYYCQGYDDLSVTFGGGTKVDIKR
# notes: also called 090E-M007-A09-Mat1-hIgG2-hIgG2Kappa
# B4: TPP-3707 (antibody, human IgG2, kappa, V domains shown)
# VH: B3 VH
# VL: B3 VL with L54S
# notes: also called 090E-M007-A09-Mat2-hIgG2-hIgG2Kappa
# B5: TPP-3821 (antibody, human IgG2, kappa, V domains shown)
# VH: QVTLRESGPALVKPTQTLTLTCTFSGFSLSTYGIGVGWIRQPPGKALEWLAHIWWNDNKYYSTSLKTRLTISKDTSKNQVVLTMTNMDPVDTATYYCARISLPYFDYWGQGTLVTVSS
# VL: DIQLTQSPSFLSASVGDRVTITCKASQNVGTAVAWYQQKPGKAPKLLIYSASNRYTGVPSRFSGSGSGTEFTLTISSLQPEDFATYYCQQYNNYPLTFGGGTKVEIKR
# notes: humanized from TPP-3187, human IgG2; also called 3187HU2-hIgG2Kappa
# B6: TPP-3820 (antibody, human IgG2, kappa, V domains shown)
# VH: B5 VH with S30T, A46G
# VL: B5 VL
# notes: humanized from TPP-3187, human IgG2; also called 3187HU1-hIgG2Kappa
# B7: TPP-2971 (antibody, mouse IgG1, V domains shown)
# VH: QVTLKESGPGILQPSQTLSLTCSFSGFSLSTYGIGVGWIRQPSGKDLEWLAHIWWNDNKYYNTALKSRLTISKDTSNNQVFLKIASVDTADTATYYCARISLPYFDYWGQGTTLTVSS
# VL: DIVMTQSQKFMSTSVGDRVSITCKASQNVGTAVAWYQQKPGQSPKLLIYSASNRYTGVPDRFTGSGSGTDFTLTISNMQSEDLADYFCQQYSSYPLTFGAGTKLELK
# notes: murine hybridoma antibody, mouse IgG1; also called 792.15H12C9
# B8: TPP-3187 (antibody, mouse IgG1, V domains shown)
# VH: B7 VH with S30T, D46G
# VL: B7 VL with S92N, S93N
# notes: murine hybridoma antibody, mouse IgG1; also called 792.15C4F4
# Molecular target: T1, human CEACAM6, extracellular (mature …)
# Test: ELISA, antibody captured, biotinylated antigen titrated
# Description: (§1) The binding characteristics of these antibodies were also determined by a binding ELISA (monovalent binding, biotinylated CEACAM proteins): A 1:440 dilution of an anti-human IgG (Sigma, 12136) in Coating buffer (Candor) was used to coat black 384-well Maxisorp plates (Nunc) for 1 hour at 37° C. After one wash with PBS/0.05% Tween-20 the plates were blocked with 100% SmartBlock (Candor) for 1 hour at 37° C. After three washes, 2 μg/ml of the relevant antibodies were added to the plate in PBS/0.05% Tween-20/10% SmartBlock. The plates were incubated for 1 hour at room temperature. After three washes dilution series of the relevant biotinylated CEACAM proteins in PBS/0.05% Tween-20/10% SmartBlock were added and the plates were incubated for one hour at room temperature. After three washes 1 μg/ml of Streptavidin-Peroxidase (Sigma, S5512) in PBS/0.05% Tween-20/10% SmartBlock was added and the plates were incubated for 30 minutes at room temperature. After three washes, the plates were developed with Amplex Red (Life Technologies) and fluorescence was read at an emission wavelength of 590 nm. GraphPad Prism 6.0 software was used to calculate EC₅₀ values using four-parameter non-linear curve fit.
EC50,fold better binding than to human CEACAM3 (ratio of EC50 values),Binder
0.09 nM,–,B1
0.09 nM,–,B2
0.18 nM,~620 fold,B3
0.19 nM,~730 fold,B4

# Molecular target: T2, Macaca fascicularis CEACAM6, …
# Test: as above
# Description: as §1
row,EC50,Binder
1,0.07 nM,B1
2,0.07 nM,B2
3,0.12 nM,B3
4,0.11 nM,B4

# Molecular target: T3, human CEACAM5, extracellular (mature …)
# Test: SPR, antibody captured, antigen as analyte
row,binding result,Binder
1,no binding (tested: 200 nM),B5
2,no binding (tested: 200 nM),B1
3,no binding (tested: 200 nM),B6
4,no binding (tested: 200 nM),B2
5,no binding (tested: 200 nM),B3
6,no binding (tested: 200 nM),B4
7,no binding (tested: 200 nM),B7
8,no binding (tested: 200 nM),B8
